The text below walks through data of paper PMC12564524, “AlphaFold-Guided Semi-Rational Engineering of an (R)-Amine Transaminase for Green Synthesis of Chiral Amines” (Biomolecules, 2025).

Data set [1] has as its system T1, CC(=O)CCc1ccccc1.
T1 construct: N-terminal 6xHis tag, pET-15b, codon-optimised synthetic gene, E. coli BL21(DE3), Ni-NTA purified; about 48 kDa; PLP-dependent fold type IV
The experiment in a line: HPLC quantification of (R)-1-methyl-3-phenylpropylamine, Michaelis-Menten fit. The data set is classed as biochemical, Mycolicibacterium wolinskyi. As to conditions: pH 7.0, 40 °C, 30 min, 10 μg/mL enzyme, ketone 0-200 mM, standard assay has 20 mM (R)-2-aminoheptane, 2 mM PLP, 100 mM triethanolamine. The source says:
(§1) HPLC quantification of (R)-1-methyl-3-phenylpropylamine, Michaelis-Menten fit on MwoAT

Substrate in data set [2]: CC(=O)CCc1ccccc1
The description is as above. The data set is classed as biochemical, Mycolicibacterium wolinskyi. Particulars: pH 7.0, 40 °C, 30 min, 10 μg/mL enzyme, ketone 0-200 mM, standard assay has 20 mM (R)-2-aminoheptane, 2 mM PLP, 100 mM triethanolamine.
Description: as §1

“MwoAT (Mycolicibacterium wolinskyi; L175A)”: in data set [1], the Km worked out at 54.25 ± 2.42 mM, the turnover number (kcat) is 5.677 ± 0.0542 s⁻¹ and the kcat/Km is 105 ± 5.67 M⁻¹ s⁻¹.

Take “MwoAT (Mycolicibacterium wolinskyi; L175G)”: in data set [1], the Michaelis constant (Km) is listed as 42.87 ± 0.43 mM, the catalytic constant (kcat) worked out at 5.32 ± 0.026 s⁻¹ and the specificity constant (kcat/Km) was determined as 124 ± 2.5 M⁻¹ s⁻¹.

B1: MwoAT (Mycolicibacterium wolinskyi) (protein)
chain: MQYSDYELDTTSPFAGGVAWIEGEYLPASEAKISIFDTGFGHSDLTYTVAHVWHGNIFRLGDHLDRLLDGARKLRLDPGMSKDELAEITKKCVSLSQLRESFVNLTVTRGYGKRKGEKDLSKLTHQVYIYAIPYLWAFPPSEQIFGTTAIVPRHVRRAGRNTVDPTIKNYQWGDLTAASFEAKDRGARTAILMDADNCVAEGPGFNVVIVKDGKLASPSRNALPGITRKTVFEIADAMGIEAELRDVTSHELYDADELMAVTTAGGVTPINSLDGEPIGDGAPGPLTVAIRDRFWALMDEPSALIEAIQY
notes: N-terminal 6xHis tag, pET-15b, codon-optimised synthetic gene, E. coli BL21(DE3), Ni-NTA purified; about 48 kDa; PLP-dependent fold type IV
Take B1: in data set [2], the Michaelis-Menten constant (Km) was determined as 68.03 ± 1.68 mM, the catalytic constant (kcat) came to 3.9358 ± 0.0035 s⁻¹ and the kcat/Km is 57.8 ± 1.5 M⁻¹ s⁻¹.
